Experimental data taken from the supplement of paper PMC10567573.

Assay: protein stability index of a GFP-peptide fusion (GPS, HEK-293T) (PSI 1-6); higher = more stable
Conditions: c terminus: native
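Also: lentivirally expressed fusion library, cells FACS-sorted into six equal-sized GFP/DsRed ratio bins, PSI computed from sequencing read fractions per bin weighted by bin number.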

EQRNSRWNTVLRAVKAKTHHLEPW [TRPA1 addW]
protein stability index (parent: NP_015628.1): 3.58

CQPISFSGFGAEDDDLGGLGLGPW [POLD2 addW]
protein stability index (parent: NP_006221.1): 2.02

HSLRAVSTDPPHHDHHDEFCLMPW [BEX2 addW]
protein stability index (parent: NP_116010.1): 3.48

LPALFTDLYSQEITAEEAREALPW [SNF8 addW]
protein stability index (parent: NP_009172.2): 3.4

DGWIRVSSDNVADLHEKYSGSTPW [PSMB5 addW]
protein stability index (parent: NP_002788.1): 3.46
